Columns and labels:
[1] = molecular target: SdKefQCTD (KTN-containing carboxy-terminal domain construct of the Shewanella denitrificans Kef potassium efflux system) (Shewanella denitrificans); experiment: AUC; analytical ultracentrifugation (Figure S3); in solution, at the concentrations used (not given)
[2] = molecular target: SdKefQCTD (KTN-containing carboxy-terminal domain construct of the Shewanella denitrificans Kef potassium efflux system) (Shewanella denitrificans); experiment: SEC; gel filtration (Figure S1); in solution, at the concentrations used (not given)
[3] = molecular target: SdKefQCTD (KTN-containing carboxy-terminal domain construct of the Shewanella denitrificans Kef potassium efflux system) (Shewanella denitrificans); experiment: SEC-MALS; size-exclusion chromatography-multiangle laser scattering (Figure S2); in solution, at the concentrations used (not given)
[4] = molecular target: SdKefQCTD (KTN-containing carboxy-terminal domain construct of the Shewanella denitrificans Kef potassium efflux system) (Shewanella denitrificans); experiment: native MS; nanoelectrospray on a QToF-2, 200 mM ammonium acetate, 7.5 uM with respect to the dimer, positive polarity; collisional activation to remove AMP

Measured: stoichiometry N

SdKefQCTD (KTN-containing carboxy-terminal domain construct of the Shewanella denitrificans Kef potassium efflux system) (domain or fragment)
2: all assays above
